Data on 35 sequences can be found in the supplement of paper PMC12764529.

± gives the half width of the 95% confidence interval.

Data set [1] in a line: folding stability dG unfold from trypsin proteolysis; higher = more stable. Put shortly:
(§1)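 Mini-proteins designed to be under 80 residues and free of cysteine were carried in a PA-tagged cDNA display construct and digested with trypsin and with chymotrypsin. Each protease was applied at 11 threefold-diluted concentrations, alongside a no-protease condition, before sequencing. K50 came from Bayesian fitting of the sequencing counts, and unfolding free energy was obtained by comparing it with a sequence-predicted unfolded-state K50 and a shared folded-state K50, for each protease separately or for both together. Designs were retained only if their AlphaFold2 dimer inter-PAE exceeded 15.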

A short description of data set [2]: folding stability dG unfold (combined trypsin and chymotrypsin); higher = more stable. In a few lines:
as §1

A short description of data set [3]: folding stability dG unfold from chymotrypsin proteolysis; higher = more stable. Put shortly: as §1

For “SAGGSAGGSKKKVKVVKVEKLEDGSVRVLLYNEDGELVLEIEFPPGMTEEEVEELVKKLLEELSAGGSAGGS [r12_798_TrROS_Hall]”, the “folding stability dG unfold” value in data set [1] is 2.47 ± 0.1 kcal/mol; in data set [2], 2.69 ± 0.13 kcal/mol; in data set [3] it was 2.72 ± 0.13 kcal/mol.

Turning to “SAGGSAGGSKKKVVIEVVIKVKKEDEEKIKKALEKELEKLGFKVKEVKVERTKNYVKVTVVLESAGGSAGGS [r12_731_TrROS_Hall]”, the figures for the “folding stability dG unfold” value in data set [1], in data set [2] and in data set [3] were 2.7 ± 0.17 kcal/mol, 3.63 ± 0.28 kcal/mol and 3.89 ± 0.2 kcal/mol, respectively.

As to “SAGGSAGGSKKKYIIKVKIYNENGELVEEKEIEAESEEEALEALAKNPNISKEEITKIEVYELSAGGSAGGS [r12_182_TrROS_Hall]”, the “folding stability dG unfold” value was determined as 2.24 ± 0.041 kcal/mol in data set [1], 2.19 ± 0.08 kcal/mol in data set [2] and 2.1 ± 0.054 kcal/mol in data set [3].

Turning to “SAGGSAGGSKKPIDIKIEDVDHRRNPNGQPYMKIRIEIPGKPLLSYTFPPGASVEDFLKNILSSAGGSAGGS [r20_115_TrROS]”, the “folding stability dG unfold” value in data set [1] is 1.1 ± 0.033 kcal/mol; in data set [2], 1.09 ± 0.057 kcal/mol; in data set [3], 0.96 ± 0.1 kcal/mol.

With “SAGGSAGGSKKPKFKVKKVEVVEENGKLRIRIVLEDGKKIEIEIKGLSKEEIEKKAKELLKKLSAGGSAGGS [r20_181_TrROS_Hall]”, the entries for the “folding stability dG unfold” value in data set [1], in data set [2] and in data set [3] were 3.57 ± 0.33 kcal/mol, 3.66 ± 0.22 kcal/mol and 3.93 ± 0.2 kcal/mol, respectively.

“SAGGSAGGSKKPVKVTVTVEVNPETGEITKVTVTEEYKDGTVTVTVTNANGEKLTFTFKIKKPSAGGSAGGS [r12_60_TrROS_Hall]”: the “folding stability dG unfold” value in data set [1] worked out at 2.15 ± 0.11 kcal/mol; in data set [2], 2.79 ± 0.082 kcal/mol; in data set [3] it was 3.099 ± 0.024 kcal/mol.

“SAGGSAGGSKKVTIVLSKEELRELFENLTPEQIAELLKKKFPKIKRVEVKEVDGKLVIEVEVESAGGSAGGS [r12_590_TrROS_Hall]”: the “folding stability dG unfold” value in data set [1] amounted to 3.15 ± 0.26 kcal/mol; in data set [2], 3.43 ± 0.17 kcal/mol; in data set [3] it was 3.59 ± 0.1 kcal/mol.

As to “SAGGSAGGSKKVYLKVTVYHKNGKKTTLEIGPITDEDGKPIETYAKELAEHPDVEKVEVEVLGSAGGSAGGS [r12_199_TrMRF]”, the entries for the “folding stability dG unfold” value in data set [1], in data set [2] and in data set [3] were 3.79 ± 0.13 kcal/mol, 4.05 ± 0.17 kcal/mol and 4.19 ± 0.13 kcal/mol, respectively.

Regarding “SAGGSAGGSKLKLEIPPGFKNVEIEVLKYNPDNGYIRVKITIYDPNNGKQFTMDRWIPADDLKSAGGSAGGS [r12_964_TrROS]”, the “folding stability dG unfold” value stood at 1.62 ± 0.099 kcal/mol in data set [1], 1.56 ± 0.19 kcal/mol in data set [2] and 1.65 ± 0.16 kcal/mol in data set [3].

Take “SAGGSAGGSKLSEEEKKKLAKKPKIKIKVKIRNKDGKEYKPGEKVKIEINGKIYEIESIEIEPSAGGSAGGS [r12_43_TrROS_Hall]”: the entries for the “folding stability dG unfold” value in data set [1], in data set [2] and in data set [3] were 1.12 ± 0.049 kcal/mol, 1.3 ± 0.085 kcal/mol and 1.36 ± 0.04 kcal/mol, respectively.

“SAGGSAGGSKLVLRIVVRNKETGEWQTLELEIEVEESEEEALAKAKELLASLPEEDVKIEILPSAGGSAGGS [r12_871_TrROS_Hall]”: the “folding stability dG unfold” value in data set [1] was found to be 3.18 ± 0.14 kcal/mol; in data set [2], 3.56 ± 0.071 kcal/mol; in data set [3], 3.79 ± 0.065 kcal/mol.

For the sequence “SAGGSAGGSKNDWGEFDAEVPFFKEKKKVKIYKNPDNPNIYYIEFPKTGKIFKVYPNGEIKEESAGGSAGGS [r12_580_TrMRF]”, the “folding stability dG unfold” value is 1.01 ± 0.062 kcal/mol in data set [1], 1.49 ± 0.16 kcal/mol in data set [2] and 1.75 ± 0.17 kcal/mol in data set [3].

Turning to “SAGGSAGGSKPKRRRVQIELPLPPGKPITPDHIREFMRPFGAPKVEITNIHPTNGRWIITFELSAGGSAGGS [r20_79_TrROS]”, the “folding stability dG unfold” value in data set [1] was determined as 1.98 ± 0.031 kcal/mol; in data set [2] it was 2.42 ± 0.14 kcal/mol; in data set [3] it was 2.6 ± 0.11 kcal/mol.

Take “SAGGSAGGSKPLVIRVRLTYYDEKTGKKVKEVELTLTVSEEEAKKLAEELKKLYPNVEVEIFPSAGGSAGGS [r12_342_TrROS_Hall]”: the “folding stability dG unfold” value in data set [1] turned out to be 4.37 ± 0.53 kcal/mol; in data set [2], 4.84 ± 0.39 kcal/mol; in data set [3], 4.67 ± 0.13 kcal/mol.

“SAGGSAGGSKPPPTVEIEITLEDGTVLRIRVTPDRIEIENLETGKRFTFPPGATIEIEVRKLPSAGGSAGGS [r12_227_TrROS_Hall]”: the figures for the “folding stability dG unfold” value in data set [1], in data set [2] and in data set [3] were 3.95 ± 0.82 kcal/mol, 4.19 ± 0.56 kcal/mol and 3.73 ± 0.49 kcal/mol, respectively.

As to “SAGGSAGGSKPPVKTIPRWIPFPPGQTPNELVDELRKLFPPGMEVDVEYDPEPGYVRVSITFRSAGGSAGGS [r12_12_TrROS]”, the “folding stability dG unfold” value in data set [1] worked out at 2.19 ± 0.042 kcal/mol; in data set [2] it was 2.06 ± 0.097 kcal/mol; in data set [3], 1.86 ± 0.047 kcal/mol.

For “SAGGSAGGSKPRLVLEIKIKAESEEEAREEVEKALQEKFGLKIKSVEIEREEDYITVRVEIEPSAGGSAGGS [r12_265_TrROS_Hall]”, the “folding stability dG unfold” value in data set [1] turned out to be 2.26 ± 0.081 kcal/mol; in data set [2] it was 1.92 ± 0.23 kcal/mol; in data set [3], 2 ± 0.061 kcal/mol.

As for “SAGGSAGGSKQILKKLGLPPGKEVQIMMTPNDMNELRDLPGIKSIKMEPRPDGYYQHSIRIDNSAGGSAGGS [r12_750_TrROS]”, the “folding stability dG unfold” value in data set [1] was -1.31 ± 0.59 kcal/mol; in data set [2], -0.583 ± 0.49 kcal/mol; in data set [3] it was -0.386 ± 0.33 kcal/mol.

As for “SAGGSAGGSKTLKIEIPVEEESEEEARKKIKEALKELGIKEITEEDIKIERKEDGTLRAEIKLSAGGSAGGS [r12_122_TrROS_Hall]”, the “folding stability dG unfold” value was determined as 0.987 ± 0.084 kcal/mol in data set [1], 0.817 ± 0.17 kcal/mol in data set [2] and 0.343 ± 0.11 kcal/mol in data set [3].

Turning to “SAGGSAGGSKTLVIEEDGELYKVRITNKNGKEIEIVMSADEIKKLPPNAKVEVEKIKLPEKKPSAGGSAGGS [r12_419_TrROS_Hall]”, the “folding stability dG unfold” value came to 1.18 ± 0.028 kcal/mol in data set [1], 1.36 ± 0.062 kcal/mol in data set [2] and 1.52 ± 0.067 kcal/mol in data set [3].

In the case of “SAGGSAGGSKVDIVKVEVYEVESPLGGRYYLVKVYRKDGRPILVLASPSTTPEEVLKKAEEAESAGGSAGGS [r12_1047_TrMRF]”, the “folding stability dG unfold” value amounted to 1.96 ± 0.049 kcal/mol in data set [1], 2.48 ± 0.12 kcal/mol in data set [2] and 2.78 ± 0.053 kcal/mol in data set [3].

Turning to “SAGGSAGGSKVIPITFPKSLSLEQIEDFVRKIAAESGAKVKSVKIVDVDPENNRVTVLVEVEGSAGGSAGGS [r12_168_TrMRF]”, the “folding stability dG unfold” value amounted to 3.14 ± 0.042 kcal/mol in data set [1], 3.31 ± 0.079 kcal/mol in data set [2] and 3.34 ± 0.038 kcal/mol in data set [3].

For “SAGGSAGGSKWIKIMYMIPPGDPEEIIEKLLPPGYKIEEVEVQRMPGYFMVDITIRDEDPDAISAGGSAGGS [r12_445_TrROS]”, the “folding stability dG unfold” value in data set [1] was 2.46 ± 0.11 kcal/mol; in data set [2], 2.37 ± 0.21 kcal/mol; in data set [3], 2.37 ± 0.16 kcal/mol.

Take “SAGGSAGGSLIPADRTYKVTVTVEGDKVILTLTDPTSSVTYTLTLDIGPEKVPAGSTLTYTGSSAGGSAGGS [r12_525_JUSTAS]”: the entries for the “folding stability dG unfold” value in data set [1], in data set [2] and in data set [3] were 1.22 ± 0.075 kcal/mol, 1.56 ± 0.25 kcal/mol and 1.7 ± 0.19 kcal/mol, respectively.

For the sequence “SAGGSAGGSLVIPLPNGGRIEVLEVGEDYVLVRLVDPMPGTNKPRVSEIRLKLPPLKPPPPDKSAGGSAGGS [r12_959_TrMRF]”, the “folding stability dG unfold” value was 2.36 ± 0.073 kcal/mol in data set [1], 2.28 ± 0.11 kcal/mol in data set [2] and 2.14 ± 0.032 kcal/mol in data set [3].

As to “SAGGSAGGSMALPPDLEVRITERTVSPDGSTTTYTVERPDGTTVTLTSEAELAALRESGVVLESAGGSAGGS [r12_455_JUSTAS]”, the “folding stability dG unfold” value is 0.227 ± 0.086 kcal/mol in data set [1], 0.145 ± 0.089 kcal/mol in data set [2] and -0.137 ± 0.15 kcal/mol in data set [3].

For the sequence “SAGGSAGGSMDGTVRQPPGGVWEVRARPPAVTPVLVTVVLVTVDADGNLILNPVAGYTHPDELSAGGSAGGS [r12_1027_TrMRF]”, the “folding stability dG unfold” value in data set [1] is 0.359 ± 0.032 kcal/mol; in data set [2], 0.848 ± 0.077 kcal/mol; in data set [3], 1.11 ± 0.074 kcal/mol.

As to “SAGGSAGGSMEENKPVVTLTTVEIYIESEVDPSLGKPLNPKKITVTLTTTVPPDGSTSTSTLFSAGGSAGGS [r12_438_JUSTAS]”, the “folding stability dG unfold” value in data set [1] was found to be 1.11 ± 0.17 kcal/mol; in data set [2] it was 1.45 ± 0.19 kcal/mol; in data set [3], 1.67 ± 0.17 kcal/mol.

As to “SAGGSAGGSMEEVEVFELEDGTLLVLVRVDGKEELIEIPLDDLKKLPNVKEVKIFPVKKVEKPSAGGSAGGS [r12_343_TrROS_Hall]”, the results for the “folding stability dG unfold” value in data set [1], in data set [2] and in data set [3] were 0.803 ± 0.052 kcal/mol, 1.21 ± 0.086 kcal/mol and 1.43 ± 0.057 kcal/mol, respectively.

Take “SAGGSAGGSMEFVEIEIEKELETEVSPDGTTTTRYRVPDGSILVVTTTHPPDGVPTPTVTLVASAGGSAGGS [r20_240_JUSTAS]”: the “folding stability dG unfold” value is 1.16 ± 0.021 kcal/mol in data set [1], 1.08 ± 0.045 kcal/mol in data set [2] and 0.944 ± 0.075 kcal/mol in data set [3].

As to “SAGGSAGGSMEIIGSFTFPNPNGMNIKVNVYRNPEEKKWWAKVEIWDGGKPKTHTMPLDDFLKSAGGSAGGS [r12_1063_TrROS]”, the “folding stability dG unfold” value in data set [1] was determined as 1.23 ± 0.042 kcal/mol; in data set [2] it was 1.73 ± 0.1 kcal/mol; in data set [3] it was 2.06 ± 0.088 kcal/mol.

Regarding “SAGGSAGGSMEIIPPEELLARLSPEELVLVRLPTAPRLLPREELRLLPRDIPVEVEVIPRLPPSAGGSAGGS [r12_501_TrMRF]”, the “folding stability dG unfold” value in data set [1] was 0.496 ± 0.23 kcal/mol; in data set [2], 1.5 ± 0.46 kcal/mol; in data set [3], 2.24 ± 0.1 kcal/mol.

Consider “SAGGSAGGSMEIPANIPIEEFAALIKKKGNFEVKKVGPKTFVIVSKDNKKPLVVKFDAKPGLDSAGGSAGGS [r20_236_TrMRF]”, for which the results for the “folding stability dG unfold” value in data set [1], in data set [2] and in data set [3] were -0.035 ± 0.064 kcal/mol, 0.183 ± 0.076 kcal/mol and 0.261 ± 0.15 kcal/mol, respectively.

As for “SAGGSAGGSMEIVVPVKNPEELKAVAEELEKKGYKVEKLPDGSLKVEKPGSVIYIKGDPVPPLSAGGSAGGS [r12_204_JUSTAS]”, the “folding stability dG unfold” value in data set [1] was determined as 1.52 ± 0.074 kcal/mol; in data set [2], 1.45 ± 0.14 kcal/mol; in data set [3], 1.49 ± 0.06 kcal/mol.

Turning to “SAGGSAGGSMEPIDLSIVEIKEELLPSGKKKYIVTIETPGKKVKKYTFPPDISIEDIKKLILNSAGGSAGGS [r20_115_JUSTAS]”, the entries for the “folding stability dG unfold” value in data set [1], in data set [2] and in data set [3] were 2.17 ± 0.11 kcal/mol, 2.69 ± 0.12 kcal/mol and 2.881 ± 0.026 kcal/mol, respectively.
